Reference: patent US4829052A, “Serine protease inhibitors” (Monsanto Company, priority 1987, dated 1989)
“Also recorded” adds a separate entry of the source.

What was measured:
Type in all cases: biochemical
bovine chymotrypsin = bovine chymotrypsin (Bos taurus, UniProt P00766); assay: Chymotrypsin assay (spectrophotometric, p-nitroanilide substrate); conditions: for Inhibitory Activity Chymotrypsin: inhibitor/protease ratio between about 10/1 and 50/1; for inhibition of chymotrypsin (in words): text discussion of Table III
Method: (§1) The inhibitory activity of the polypeptides of the present invention can be easily assayed using in vitro assays. In these types of spectrophotometric assays the activity of the serine protease is measured toward an appropriate p-nitroanilide substrate in the presence and absence of the peptide inhibitor. The enzyme catalyzed hydrolysis of the peptide p-nitroanilide substrate produces p-nitroanaline which results in an increase in absorbance which is monitored in the range of 405 to 410 nm. The rate of increase in absorbance is a measure of the enzymatic activity and the decrease in this rate relative to a suitable control is used to ascertain inhibition. The general assay procedure and details of the particular assays employed in the examples are provided in the Appendix following the examples. It is also possible to test the polypeptides in a functionally oriented assay that emulates in vivo conditions. Such an inhibition assay for elastase is also described in the Appendix.
(§2) Generalized Protocol Spectrophotometric Assays:
(§3) (1) Pipette 100 μl of enzyme solution into a disposable polystyrene cuvette (1 cm optical path length).
(§4) (2) Add (1900-X) μl of bufferto the cuvette, where X is the volume of test solution in microliters that is added in the next step.
(§5) Add X μl of test solution to the cuvette, where X ranges from 0 μl for the control to a maximum of about 500 μl. Incubate the solution for a period of 1 to 5 minutes at ambient temperature.
(§6) (4) Add 100 μl of substrate solution to the cuvette. Mix the contents by covering the cuvette with a piece of paraffin film and repeatedly inverting for a period of 5 to 15 seconds.
(§7) (5) Record the change in absorbance for about 5 minutes at either 405 or 410 nm, depending on the assay, with a spectrophotometer equipped with a suitable recording device.
(§8) The percent inhibition is calculated from the formula [formula] where (ΔA/min) is the initial rate of absorbance change.
(§9) (7) For more accurate quantitative determinations temperature control of the cuvette holders and the reagent solutions can be instituted.
(§10) (8) The test solution can be crude oxidized peptide prepared as described above, fractions from a chromatographic separation or purified polypeptides.
(A) Buffer solution - triethanolamine buffer- See trypsin assay.
(B) Substrate Solution - Dissolve 25 mg of 3-carbomethoxypropionyl-L-arginyl-L-prolyl-L-tyrosine p-nitroanilide (Product No. S-2586, KabiVitrum AB, Stockholm, Sweden) in 23.6 ml of water
(C) Enzyme solution - Dissolve 1 mg of bovine chymotrypsin in 4 ml of 0.001N HCl. Prepare the final dilution by combining 0.1 ml of the stock chymotrypsin solution and 10 ml of 0.001N HCl. Store on ice or at 4° C.
Procedure: Use the above solutions in the general protocol
(2) See note 1 of the cathepsin G assay.
(3) 0.1M Tris-HCl, pH 7.8, 20 mM CaCl2, 0.05% triton X-100 can be substituted for the triethanolamine buffer.

Human Sputum Elastase = biological target: T1, Human Sputum Elastase (Homo sapiens, UniProt P08246); assay: Elastase assay (spectrophotometric, p-nitroanilide substrate); conditions: for Inhibitory Activity Elastase: inhibitor/protease ratio between about 10/1 and 50/1; for inhibition of human elastase (in words): text discussion of Table III
T1 construct: Human Sputum Elastase, product No. SE-563 EPC, Inc., Pacific, Mo; USA, Lot 85701; purchased EPC, Inc., Pacific, Mo; USA SE-563; host or cells: human sputum
T1 sequence (P08246 30-267): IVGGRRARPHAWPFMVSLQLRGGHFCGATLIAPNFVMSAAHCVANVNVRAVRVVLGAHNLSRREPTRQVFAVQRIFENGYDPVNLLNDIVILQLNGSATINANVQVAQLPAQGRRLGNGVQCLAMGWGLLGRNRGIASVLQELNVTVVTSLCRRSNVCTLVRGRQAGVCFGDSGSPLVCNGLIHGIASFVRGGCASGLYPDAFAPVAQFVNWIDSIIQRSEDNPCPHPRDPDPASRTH
Method: as §1, §2, §3, §4, §5, §6, §7, §8, §9, §10
(A) Buffer Solution - Tris-NaCl buffer consisting of 0.1M Tris-HCl pH 7.5 at 25° C. containing 0.5M NaCl and 0.01% (w/v) NaNs.
(B) Substrate Solution - Dissolve 45.5 mg of N-succinyl-L-alanyl-L-alanyl-L-alanine p-nitroanilide in 1 ml of 1-methyl-2-pyrrolidinone. Add 32 ml of Tris-NaCl buffer.
(C) Enzyme Solution - Human Sputum Elastase, product No. SE-563 EPC, Inc., Pacific, Mo. USA, Lot 85701. Dissolve 1 mg in 1 ml of Tris-NaCl buffer. Store on ice or at 4° C.
(§11) (D) Test Solution - See general protocol, number 8.
(§12) Procedure: Use the above solutions in the general protocol described above.
(1) Buffer Solution - Tris-NaCl buffer -see Method 1.
(2) Substrate Solution - Dissolve 50 mg of 3-carbomethoxypropionyl-L-alanyl-L-alanyl-L-[…]-L-valine p-nitroanilidein 1 ml of 1-methyl-2-pyrrolidinone. Add 32 ml of Tris-NaCl buffer.
(3) Enzyme Solution - Human sputum elastase, product No. SE-563, EPC, inc. Pacific, Mo. USA, Lot 85071. Prepare a sample at a concentration of 0.01 mg per ml of Tris-NaCl buffer. Store on ice.
(4) Test Solution - general protocol, number 8.
Procedure: Use the above solutions in the general protocol.
(1) Porcine pancreatic elastase may be substituted for human elastase when it is desired to test for an inhibitor of the former.
(2) The activity of an elastase preparation can be calculated as [formula]
(3) The Tris-NaCl buffer also can be pH 8.0 with 0.03% sodium azide. Results should be compared at a single pH.

bovine trypsin = biological target: T2, bovine trypsin (Bos taurus, UniProt P00760); assay: Trypsin assay (spectrophotometric, N-Benzoyl-L-arginine p-nitroanilide substrate); conditions: for Inhibitory Activity Trypsin: inhibitor/protease ratio between about 10/1 and 50/1; for inhibition of trypsin (in words): text discussion of Table III
T2 sequence (P00760 24-246): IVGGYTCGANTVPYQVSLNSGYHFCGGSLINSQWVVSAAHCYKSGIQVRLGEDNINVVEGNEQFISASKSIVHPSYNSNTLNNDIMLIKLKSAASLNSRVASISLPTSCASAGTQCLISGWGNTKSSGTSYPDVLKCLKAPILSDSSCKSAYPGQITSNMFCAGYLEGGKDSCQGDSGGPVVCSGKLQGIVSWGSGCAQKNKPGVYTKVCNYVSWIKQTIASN
Method: as §1, §2, §3, §4, §5, §6, §7, §8, §9, §10
(A) Buffer Solution - Triethanolamine buffer consisting of 200 mM triethanolamine, 20 mM CaCl2, pH 7.8
(B) Substrate solution - Dissolve 50 mg of N-Benzoyl-L-arginine p-nitroanilide in 50 ml of water. Sonicate for 5 to 10 minutes to completely dissolve the solid material.
(C) Enzyme solution - Dissolve 1 mg of bovine trypsin in 10 ml of 0.001N HCl stored on ice during the assay.
as §11, §12

Human Sputum Cathepsin G = biological target: T3, Human Sputum Cathepsin G (Homo sapiens, UniProt P08311); assay: Cathepsin G assay (spectrophotometric, p-nitroanilide substrate); conditions: for Inhibitory Activity Cathepsin G: inhibitor/protease ratio between about 10/1 and 50/1; for inhibition of cathepsin G (in words): text discussion of Table III
T3 construct: Human Sputum Cathepsin G (Product No. SG-45, EPC, Inc., Pacific, Mo.); purchased EPC, Inc., Pacific, Mo; SG-45; host or cells: human sputum
T3 sequence (P08311 21-255): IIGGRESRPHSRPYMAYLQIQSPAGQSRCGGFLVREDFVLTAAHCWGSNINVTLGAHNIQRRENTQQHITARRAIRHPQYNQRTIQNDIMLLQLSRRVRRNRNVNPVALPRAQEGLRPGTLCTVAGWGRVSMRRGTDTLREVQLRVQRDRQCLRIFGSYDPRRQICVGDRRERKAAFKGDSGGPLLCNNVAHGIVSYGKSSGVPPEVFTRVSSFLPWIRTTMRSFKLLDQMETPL
Method: as §1, §2, §3, §4, §5, §6, §7, §8, §9, §10
(A) Buffer Solution - Tris-NaCl buffer consisting of 0.1M Tris-HCl, pH 8.0 containing 0.5M NaCl and 0.03% sodium azide.
(B) Substrate solution - Dissolve 50 mg of N-succinyl-L-alanyl-L-alanyl-L-prolyl-L-phenylalanine p-nitroanilide in 1 ml of 1-methyl-2-pyrrolidinone and dilute to 50 ml with Tris-NaCl buffer.
(C) Enzyme Solution - Human Sputum Cathepsin G (Product No. SG-45, EPC, Inc., Pacific, Mo.). Dissolve 1 mg of protein per 1 ml of Tris-NaCl buffer. Store on ice or at 4° C.
(D) Test Solutions - See the general protocol, number 8.
Procedure: Use the above solution in the general protocol described above. […]

## RVCGVILMKCKKDSDCLAECVCLEHGYCG (RVCGVILMKCKKDSDCLAECVCLEHGYCG) [Peptide 46]
Bovine chymotrypsin
  Inhibitory Activity Chymotrypsin: - (Represents less than 10% inhibition)
Human Sputum Elastase
  Inhibitory Activity Elastase: ++ (Represents greater than 50% inhibition)
  inhibition of human elastase (in words): continue to be inhibitors of human elastase
Bovine trypsin
  Inhibitory Activity Trypsin: - (Represents less than 10% inhibition)
Human Sputum Cathepsin G
  Inhibitory Activity Cathepsin G: - (Represents less than 10% inhibition)

## R V C Hyp VILMKCKKDSDCLAECVCLEHGYCG [Peptide 47]
Bovine chymotrypsin
  Inhibitory Activity Chymotrypsin: - (Represents less than 10% inhibition)
Human Sputum Elastase
  Inhibitory Activity Elastase: ++ (Represents greater than 50% inhibition)
  inhibition of human elastase (in words): continue to be inhibitors of human elastase
Bovine trypsin
  Inhibitory Activity Trypsin: - (Represents less than 10% inhibition)
Human Sputum Cathepsin G
  Inhibitory Activity Cathepsin G: - (Represents less than 10% inhibition)

## RVCPAILMKCKKDSDCLAECVCLEHGYCG (RVCPAILMKCKKDSDCLAECVCLEHGYCG) [Peptide 36]
Bovine chymotrypsin
  Inhibitory Activity Chymotrypsin: ++ (Represents greater than 50% inhibition)
Human Sputum Elastase
  Inhibitory Activity Elastase: ++ (Represents greater than 50% inhibition)
  inhibition of human elastase (in words): continue to be inhibitors of human elastase
Bovine trypsin
  Inhibitory Activity Trypsin: + (Represents between 10% and 50% inhibition)
Human Sputum Cathepsin G
  Inhibitory Activity Cathepsin G: + (Represents between 10% and 50% inhibition)

## RVCPFILMKCKKDSDCLAECVCLEHGYCG (RVCPFILMKCKKDSDCLAECVCLEHGYCG) [Peptide 15]
Bovine chymotrypsin
  Inhibitory Activity Chymotrypsin: ++ (Represents greater than 50% inhibition)
  inhibition of chymotrypsin (in words): Inhibition of chymotrypsin and cathepsin G was observed
Human Sputum Elastase
  Inhibitory Activity Elastase: ++ (Represents greater than 50% inhibition)
  inhibition of human elastase (in words): inhibited
Bovine trypsin
  Inhibitory Activity Trypsin: ++ (Represents greater than 50% inhibition)
  inhibition of trypsin (in words): inhibited
Human Sputum Cathepsin G
  Inhibitory Activity Cathepsin G: ++ (Represents greater than 50% inhibition)
  inhibition of cathepsin G (in words): Inhibition of chymotrypsin and cathepsin G was observed

## RVCPGILMKCKKDSDCLAECVCLEHGYCG (RVCPGILMKCKKDSDCLAECVCLEHGYCG) [Peptide 51]
Bovine chymotrypsin
  Inhibitory Activity Chymotrypsin: - (Represents less than 10% inhibition)
Human Sputum Elastase
  Inhibitory Activity Elastase: ++ (Represents greater than 50% inhibition)
  inhibition of human elastase (in words): is a human elastase inhibitor; also recorded: less effective inhibitor of elastase than peptides 1 or 8
Bovine trypsin
  Inhibitory Activity Trypsin: - (Represents less than 10% inhibition)
Human Sputum Cathepsin G
  Inhibitory Activity Cathepsin G: - (Represents less than 10% inhibition)

## RVCPIILMKCKKDSDCLAECVCLEHGYCG (RVCPIILMKCKKDSDCLAECVCLEHGYCG) [Peptide 1]
Bovine chymotrypsin
  Inhibitory Activity Chymotrypsin: - (Represents less than 10% inhibition)
Human Sputum Elastase
  Inhibitory Activity Elastase: ++ (Represents greater than 50% inhibition)
Bovine trypsin
  Inhibitory Activity Trypsin: - (Represents less than 10% inhibition)
Human Sputum Cathepsin G
  Inhibitory Activity Cathepsin G: - (Represents less than 10% inhibition)

## RVCPLILMKCKKDSDCLAECVCLEHGYCG (RVCPLILMKCKKDSDCLAECVCLEHGYCG) [Peptide 29]
Bovine chymotrypsin
  Inhibitory Activity Chymotrypsin: ++ (Represents greater than 50% inhibition)
Human Sputum Elastase
  Inhibitory Activity Elastase: ++ (Represents greater than 50% inhibition)
  inhibition of human elastase (in words): continue to be inhibitors of human elastase
Bovine trypsin
  Inhibitory Activity Trypsin: ++ (Represents greater than 50% inhibition)
Human Sputum Cathepsin G
  Inhibitory Activity Cathepsin G: + (Represents between 10% and 50% inhibition)

## RVCPMILMKCKKDSDCLAECVCLEHGYCG (RVCPMILMKCKKDSDCLAECVCLEHGYCG) [Peptide 22]
Bovine chymotrypsin
  Inhibitory Activity Chymotrypsin: ++ (Represents greater than 50% inhibition)
  inhibition of chymotrypsin (in words): inhibits
Human Sputum Elastase
  Inhibitory Activity Elastase: ++ (Represents greater than 50% inhibition)
  inhibition of human elastase (in words): inhibits
Bovine trypsin
  Inhibitory Activity Trypsin: ++ (Represents greater than 50% inhibition)
  inhibition of trypsin (in words): inhibits
Human Sputum Cathepsin G
  Inhibitory Activity Cathepsin G: + (Represents between 10% and 50% inhibition)
  inhibition of cathepsin G (in words): inhibits

## RVCPRILMKCKKDSDCLAECVCLEHGYC (RVCPRILMKCKKDSDCLAECVCLEHGYC) [Control, comparative control, reference compound]
Bovine chymotrypsin
  Inhibitory Activity Chymotrypsin: - (Represents less than 10% inhibition)
Human Sputum Elastase
  Inhibitory Activity Elastase: - (Represents less than 10% inhibition)
Bovine trypsin
  Inhibitory Activity Trypsin: ++ (Represents greater than 50% inhibition)
Human Sputum Cathepsin G
  Inhibitory Activity Cathepsin G: - (Represents less than 10% inhibition)
